Tests used:
Format in all cases: biochemical, Quillaja saponaria
[1] = Experiment 5-1: screening of additional glucosidases for deglycosylation with purified QS-18 (0.04 mg/ml) at pH 7.5 and 30 deg C; conditions: pH 7.5, 30 degrees C, 18 hours, LCMS/MS
Protocol: The 94 additional genes, together with positive control (DNA encoding SEQ ID No. 262) and negative control, were transformed, expressed, lysed and reacted in the same manner as described above for Experiment 4-1, except the reaction was incubated at 30 degrees C. for 18 hours.
Samples were analysed by LCMS/MS according to the procedure in Experiment 4-1.

[2] = Experiment 5-3: screening of additional glucosidases for deglycosylation with QS-18 in treated bark extract (80%) at pH 6 and 35 deg C; conditions: TBE 80% (QS-21 approx. 4 g/L), pH 6, 35 deg C; UV HPLC
Protocol: Experiment 5-1 was repeated, replacing CBE with Treated Bark Extract (TBE) at pH 6. TBE was prepared from CBE by PVPP treatment and concentration, to provide TBE with a QS-21 concentration of approximately 4 g/L. TBE was adjusted to pH 6 by dropwise addition of 2M NaOH with stirring.

[3] = Experiment 5-2: screening of additional glucosidases for deglycosylation with QS-18 in crude bark extract (80%) at pH 6 and 35 deg C; conditions: CBE 80%, pH 6, 35 deg C, 18 hours; UV HPLC
Outline: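 Deglycosylation of QS-18 was monitored by UV HPLC after MeCN/AcOH quench with hexanophenone. The reaction ran 18 hours at 35 deg C, shaking, combining clarified pH 6 lysate with crude bark extract neutralised to pH 6 by NaOH.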

B1: 830 (protein)
chain: MGTAHDLEQLIAGLTLEEKIALLAGDSLWTVPGIPRLGIRPLKVSDGPAGVRGSRIVPAAAFPAPVLLGATWDPELVERVGQALAEEAETKGAQVVLAPTINLQRTALGGRNFECFSEDPHLTARLAVAYVRGLQSRGIGACIKHYVANDQEFERHTVSVEVDERTLREVYLFPFAVAVAEADPWCVMAAYNRVGGIYCSEHPWLLTTILREELGYQGVVMSDWFATHSTIEALQAGLDLEMPGPPQWRGDKLREAVERGEVALEVIERSARRVLMLYQRAGRFAPGPETSEERAVDRPEHRALIREVGASGMVLLRNEGILPLDLSTVKRVAVIGPHVRRPAVGGGGSAFVRSHPVVTPLEALRESAPQCEFLVEEGAAIFKLIPPLEGEALGSEGAELAFFANPELAGAPVATIRVRTTDLIWLGEVAPGVDASAFSARLRVTMRPEESGRYVLGATAVGQVRVHLDGTLVLDNWTAPQPGRTYFGFGSAEVRAAVDLEAERAYEIVVEYRKFQPGLPLAGFRFGVVHELSDEERIARSVRAAQQADLALLFVGLSPEWESEGFDRESFDLPGAQNALVTAVADANPNTVVVLTAGSPVNLPWLERVGALLLAWYAGEEVGHAVVDVLTGVREPAGRLPFTYPQRLEDTPAFLNYPGEFGRLRYCEGLFIGYRWYDARQIEPLFPFGFGLGYTRFAYRDLVLDRESLGGEEKLTVTCTVENVGERAGSEVVQLYLAFPPGTVRRPLKELRGFRRVHLMPQGSASVSFTVSPRDLAYFDEAAREWVAPPGEYEIMIGAHARDIRLRGRFLLREELRWDAGGRFRDV
modifications: bacterium
- Experiment 5-1 % conv [1]: 9.3%
- Experiment 5-3 % conv [2]: <0.5%
- Experiment 5-2 % conv [3]: <0.5%

B2: 845 (protein, listed as Kitasatosporia setae)
chain: MTQLSMPSSLTTPASGTDHRVLDLERKARLVSGGDTFRTSPEPALGLFPIVCSDGPVGVRGERWDEADTALLLPCATALAASWDEELVARMGGLLAAEARRKGVHVVLAPTLNLHRSPLGGRNFECFSEDPLLTARIGAAYIGGVQALGVAATAKHYVANDSETERLTVDARVDERTLREVYLAPFEAAVRAGVWAVMSAYNRVNGTSMVEHPLLAEPLKGEWGFDGLVVSDWGSVREADGPGAAACDLSMPGPNPAWGPALAAAVRAGRVPAAALDDKVERLLRLAGRVGAFDPPPAGRAPVPADPATRGALRAAAVAGTVLLHNPDRLLPLDEPALRRVAVLGPNAATARVQGGGSASVFPAAPVSPLNGLRAALDPSVEVTHAPGVRTELRPTPLAAADCVLPDGSGPGVLVRYLAADGSPLHTEARATGRVLEPSADVDLTAVRTIEVASRFTAPSAGRWRLGVVGLGALRLEADGAVLLDEYVAPLSDDPTYLHVAPSFRQVELELAAGQGVDLLARRTVEPEHGRVLVLAADRPAAELEREFAHAVELAAAADVAVVVVGTTDEHESEGFDRAGLRLPGRQDELVEAVAAVNPRTVVVVNTGSPVLLPWRERVGAVLTCWFPGQEGGGALAEVLLGRAEPGGRLPTTWPDAEADCPVYATAPSGGRLAYAEGPHLGHRGWLRAGRTPAYWFGHGLGWGEWCYLALGEPSAPAADGSRTVRVALRNDGPRRSRETVQLYLSRPDSELDRPVRWLAGFGAVEAGPGERVEVELRLPQRALQHWSVEDRAWRTEPGTFVLHVGPHSGELPLAAALPVGA
- Experiment 5-1 % conv [1]: 9.2%
- Experiment 5-3 % conv [2]: <0.5%
- Experiment 5-2 % conv [3]: <0.5%

B3: 871 (protein, listed as Dactylellina haptotyla)
chain: MLDESVSREIEETLAQLTLEEKISLLAGKDMWRTVPIPDKQVPSIKTSDGPSGARGDSFTGGTKAAFFPSGISMGATFNPELAYEVGQFIGDEVKSKSASVLLAPTACCHRSPLGGRNFESYSEDPLLSGKMASAYIRGVQSKNVAATMKHYAANEQETWRLHVDETIDETTLREIYLKPFEIAMREGRPWAVMSAYNIINGEHCDSNSLTLKQVLRGEWKYEGLVMSDWFGCNSMVDSLLAGLDLEMPGPAKVRPVKELVAKAEKDDSIREAVDKAARRVLTLIAKVGKWKDMTPEAPEISREDPETGKLIRRAGGEGVVLLKNDGALPLQPASLKSIAFVGPNAKATVAGGGGSANLNPNYLTQPYETFVKAIKEIDASIEVPYAQGCIIDRWIPPVNAESGLCRSGGPGSEPGWLVEWFRGHDLKGEVVSSSVFKNSDVFLWDGRPEGLNPAEGYSIRFSGQVSVPEDGNYNIALSTITAGNLYVDGELLIDNWDFKERGNLMMNIGSEEVVKTLELKKGQWYNIEVRNASIWPKDSPRDPPMEEIGALGVRLGLAAVYDNNSLIAQATDSVKNSDAVVIVVGLNNEWESESYDRTQTKLPRNQDELIEEIAKVNKNVIVVNQSGAPIDMPWVENPNVKGIIQAWYAGQEAGNVIADVLLGKQNPSGKLPLTFPVKLEDNPSYNYFPGKDKKVEYTEKLMVGYRYYDTDNVKPRFPFGYGLSYSSFKVGKPVLSTTELSEDGSFTATVEVSNTSAVAGAEVIQLYVQRKTSGTSSIKRPIKELKGFKKIHLQPGETKTAEVTVDDKSLGIWSPEAGKWVVEAGDYEVLVGTSSVYDELAAAGTVVAKSAWSWI
- Experiment 5-1 % conv [1]: 7.8%
- Experiment 5-3 % conv [2]: <0.5%
- Experiment 5-2 % conv [3]: <0.5%

B4: 837 (protein, listed as Bifidobacterium magnum)
chain: MTDNLTIGVTEANELSVKEQASLTSGQDAWHLQGIPSKGIPGYMITDGPHGLRKTTAGNGDEMNLDRSVPATCFPPAAGLSSSWNPQLVREVGEAMGEECVQEKVAVILGPGVNIKRNPLGGRNFEYWSEDPYLAGHEAAGIVDGVQSKGVGASLKHFAVNNQETDRFRVSALVSERALREIYLPAFEYIVKHSRPWTVMCSYNKINGVYSSENHWLLTDVLRKEWGFDGIVMSDWGADHNRVAALNAGLNLEMPPSGTDEQVVQGVENGTLKREQLETMAQAMIDLAHKAEDAMNQDGYRYNVDDHNNTARRAARESMVLLKNEEHVLPVKEQDHIAVIGEFARTPRYQGSGSSRINPTRLTSFLDAAQERGVSLTFAPGYTLDQSPADTQLEQEAVDAAAQADTVLMFMGLPDYDESEGFDRTTLAMPAKQLELLGKVTAANKRVVVILSNGSAVTMTPWNESVPAILETWLLGQAGGVALADIVFGDVSPSGRLAQTIPVELTDDPSTINWPGEEHHVNYGEGVFVGYRYYDTFHKPVAYPFGFGLGYADFAIDEVQVRATGVHAAQVRAKVTNLSQDTAASHVVQVYVRPVEPKVPGEASEHVARPVHELKGFAKVYLEPGQSDTVTIDLDERAFAYWSEEFHDWRIEGGEYGIEVGSSSRDIAATVPVTIAGDGKRKPLTVWNTLDEWRKDPVGKAVAGELMAKLREQGADFTGGDTSTEIFMNTLPINSLTALMGPQGNQVEDFLLGEYARRTQ
- Experiment 5-1 % conv [1]: 7.6%
- Experiment 5-3 % conv [2]: <0.5%
- Experiment 5-2 % conv [3]: <0.5%

B5: 883 (protein, listed as Salinispira pacifica)
chain: MKSIQEIRSSLTLEEKASLCSGKDFWNLKSFESKGVPAIMVADGPHGLRKQMESSADHIGIGGSVPATCFPTASAMASSWDTQLLNEVGNALGEECRQEHVAVLLGPGVNIKRSPLCGRNFEYFSEDPYLGGKLAASLIRGVQSMGVGTSLKHFAANNQERRRMIIDAVVDERALRELYLAGFETAVKESSPKTVMCAYNKLNGAFCSENHRLLSEILKEEWGFEGFVVTDWGAVNDRVAGLNAGLDLEMPASGGYNDNLMVEAVQNGTLSENSLNDAVDRILKVVLETHTALQEEFTYDAAAHHRLAQKAESESAVLLKNDKLFPLNSEDFRTEEKHGSQEHKSPKLALIGSFAKEPRYQGSGSSLINPRQLDSAYDAISRELGGDMQLLYAPGYDPADEEPDSRLIQEAVNTAAAADTVIVFAGLPEISESEGFDREHLSMPRSHNDLISAVAQVNPRTAVVLSNGSPVTMPWLDSVPAVLESYLGGQAWGSAISDIIFGRANPSGKLAETFPLSLQDVPSSAQFPGGSASVVYTDSLYVGYRYFSGTGKPVLFPFGHGLSYTRFSYDGLKITGRGTGRTVQCRITNTGSRDGKEVIQLYVHSESSSVFRPEQELKGFSKVSLAPGEEKTVEFRLDDRSFAYWDPGAGDWMVESGNYEIRIAASSADIRLRETIRIDSTQTPSQWAADLRNRIPEFFSPAPELFHDISPESPFRKLLGRPIPPPHWDTREGFTRNSTLEETTRTFIGRILYKAVMREGSRMMSQDADEKSIAMMQAVIREMPLKNLGMMGGDKISMHTVDSLILLLNGKIIRGLGSLLRRK
- Experiment 5-1 % conv [1]: 7.0%
- Experiment 5-3 % conv [2]: <0.5%
- Experiment 5-2 % conv [3]: <0.5%

B6: 809 (protein, listed as Rhodococcus erythropolis)
chain: MELTAATGRNDVTENYVDGLSLEEKASLTSGSDFWHSQSVAGIESILLTDGPHGVRKQPEGGDALGLGHSIPATCFPPAVGLGSSWNLDLIRQVGEALGDEAKAEQVSVLLGPGINIKRSPLCGRNFEYVSEDPFLSGRVAAALITGIQSRGVGTSLKHFAANNQEHDRMRVSADVDERTLREIYLAGFEYAVKTAAPTTVMCSYNKINGVYSSQNHWLLTEVLREQWGFDGLVVSDWGAVNDRVAALAAGLDLEMPPTGTDTQIVDAVRGGDLDESVLTTAAERLSTLVKRTAAARTEGHTYDVERHHELARTAAAESAVLLANDGELLPLTPGGQTVAVIGEFACSPRYQGAGSSQVVPTKLDNALDAILDLEGADRVTFAPGFTFDGTPDDHMVTEAVDAARRADVAVLFLGLPSATESEGFDRTDIELPADQIALLEAVHGANPNTVVVLANGGVVSIEPWKDHAAAILEGWLLGQAGGSAIADLLFGITNPSGRLTETIPLRLQDNPSYLHFPGSQQHVRYGEGLYVGYRYYDSALREVAYPFGFGLSYTTFDITDTSVDAGKNSAEVTVTVRNSGDRSGSTVVQVYVHDASASIDRPAQELKGFAKVHLDPDESATVTITLDTRAFAYWSVAAQDWAIEPGDYEIRVGFSSRDIATTDTITLAGNVGVGTLDAMSTIGEWLAHPVGSAVLGAAMAAAAGDGAQAVSPEMMALAGSMPLGKLATFGLGITEEQVAQLVAAAAQPGS
- Experiment 5-1 % conv [1]: 6.3%
- Experiment 5-3 % conv [2]: <0.5%
- Experiment 5-2 % conv [3]: <0.5%
